# Test results taken from paper PMC10958042.
# B1: ATGL (PNPLA2, patatin-like phospholipase domain-containing protein 2), human, full length / perilipin-5, mouse (mPlin5) (parent)
# chain 1: MFPREKTWNISFAGCGFLGVYYVGVASCLREHAPFLVANATHIYGASAGALTATALVTGVCLGEAGAKFIEVSKEARKRFLGPLHPSFNLVKIIRSFLLKVLPADSHEHASGRLGISLTRVSDGENVIISHFNSKDELIQANVCSGFIPVYCGLIPPSLQGVRYVDGGISDNLPLYELKNTITVSPFSGESDICPQDSSTNIHELRVTNTSIQFNLRNLYRLSKALFPPEPLVLREMCKQGYRDGLRFLQRNGLLNRPNPLLALPPARPHGPEDKDQAVESAQAEDYSQLPGEDHILEHLPARLNEALLEACVEPTDLLTTLSNMLPVRLATAMMVPYTLPLESALSFTIRLLEWLPDVPEDIRWMKEQTGSICQYLVMRAKRKLGRHLPSRLPEQVELRRVQSLPSVPLSCAAYREALPGWMRNNLSLGDALAKWEECQRQLLLGLFCTNVAFPPEALRMRAPADPAPAPADPASPQHQLAGPAPLLSTPAPEARPVIGALGL
# chain 2: MDQRGEDTTLAPHSRMSGDQTAQDPGSSLGELDQQNVVNRVVALPLVKATCTAVSSAYNSAKDRHPLLGSACRLAEHCVCSVTTCALDHAQPLLEHLQPQLATVNDLACRGLDKLEEKLPFLQQPSDMVVTSAKDTVAKSVTGMVDLAQRGRRWSGELRRSMSQAMDMVLGKSEKLVDRFLPMTEAELAVLAAEAEGPEVGTVEEQRQQQGYFVRLGSLSARLRHLAYEHSLGKLRQSKHRTQEMLAQLQETLELIQHMQRGASPSPTFHPPKTQELWGSWSPCLENGRSHSEVELETLALSRSLTLELQNAVDALAGCVRGLPPSAQAKVAEVQRSVDALQATFADAHCLGDVAPTALAEGRGSVARAHACVDEFLDLVLRAMPLPWLVGPFAPILVEQSEPLINLATCVDEVVGDPDPRWAHMDWPAQKRAWEAESADPGGQEAEPPRGQGKHTMMPELDF
# B2: ATGL (PNPLA2, patatin-like phospholipase domain-containing protein 2), human, full length / perilipin-1, mouse (mPlin1) (parent)
# chain 1: B1 chain 1
# chain 2: MSMNKGPTLLDGDLPEQENVLQRVLQLPVVSGTCECFQKTYNSTKEAHPLVASVCNAYEKGVQGASNLAAWSMEPVVRRLSTQFTAANELACRGLDHLEEKIPALQYPPEKIASELKGTISTRLRSARNSISVPIASTSDKVLGATLAGCELALGMAKETAEYAANTRVGRLASGGADLALGSIEKVVEFLLPPDKESAPSSGRQRTQKAPKAKPSLVRRVSTLANTLSRHTMQTTAWALKQGHSLAMWIPGVAPLSSLAQWGASAAMQVVSRRQSEVRVPWLHNLAASQDESHDDQTDTEGEETDDEEEEEESEAEENVLREVTALPNPRGLLGGVVHTVQNTLRNTISAVTWAPAAVLGTVGRILHLTPAQAVSSTKGRAMSLSDALKGVTDNVVDTVVHYVPLPRLSLMEPESEFRDIDNPSAEAERKGSGARPASPESTPRPGQPRGSLRSVRGLSAPSCPGLDDKTEASARPGFLAMPREKPARRVSDSFFRPSVMEPILGRAQYSQLRKKS
# Variants of: B1
# Experiment: LUMIER: Protein A-ATGL variant and firefly luciferase-partner co-expressed in HEK293T, lysates immunoprecipitated on IgG-coated plates, co-precipitated partner measured as luciferase luminescence
# Conditions: with perilipin-5, mouse (mPlin5), transient co-transfection, IgG-coated LUMITRAC plates, 2 h at 4 °C, three PBS washes, Bright-Glo luciferase reagent, triplicates per assay, two …, parent: 0.15, not graded, scale: log2 fold change of co-immunoprecipitated luminescence relative to wild-type ATGL within each experiment
row,Variant,screen value
1,chain 1 R95L,-0.404
2,chain 1 R95K,0.211
3,chain 1 R163K,-0.296
4,chain 1 Q396A,-0.512
5,chain 1 L159A,-1.17
6,chain 1 L178A,-0.0602

# Same assay, conditions: with perilipin-5, mouse (mPlin5), transient co-transfection, IgG-coated LUMITRAC plates, 2 h at 4 °C, three PBS washes, Bright-Glo luciferase reagent, triplicates per assay, two …, parent: 0.46, not graded, scale: log2 fold change of co-immunoprecipitated luminescence relative to wild-type ATGL within each experiment
row,Variant,screen value
1,chain 1 R95L,-0.391
2,chain 1 R95K,-0.228
3,chain 1 R163K,0.00396
4,chain 1 Q396A,-0.623
5,chain 1 L159A,-0.435
6,chain 1 L178A,-0.257

# Variants of: B2
# Experiment: as above
# Conditions: with perilipin-1, mouse (mPlin1), transient co-transfection, IgG-coated LUMITRAC plates, 2 h at 4 °C, three PBS washes, Bright-Glo luciferase reagent, triplicates per assay, two …, parent: 0.26, not graded, scale: log2 fold change of co-immunoprecipitated luminescence relative to wild-type ATGL within each experiment
row,Variant,screen value
1,chain 1 L62K,0.457
2,chain 1 L62A,0.475
3,chain 1 G16K,0.265
4,chain 1 Q140A,-0.00146
5,chain 1 Q140K,-0.355
6,chain 1 E368A,-0.0883
7,chain 1 I70K,-0.495
8,chain 1 I70A,-0.501
9,chain 1 R351L,-0.000717
10,chain 1 A434L,0.0211
11,chain 1 R329E,-0.367
12,chain 1 R163K,-0.504
13,chain 1 G66L,-0.803
14,chain 1 G66A,-0.406
15,chain 1 R113K,-0.0594
16,chain 1 R113L,0.128
17,chain 1 S106K,-0.529
18,chain 1 L261E,-0.624
19,chain 1 N39E,-0.0832
20,chain 1 S158E,-0.452
21,chain 1 S158A,-0.232
22,chain 1 P86K,-0.8
23,chain 1 L159A,-0.915
24,chain 1 V328A,-0.205
25,chain 1 Y415A,-0.0219
26,chain 1 P258L,-0.67

row,Variant,screen value
1,chain 1 V127L,-0.304
2,chain 1 R95K,-0.788
3,chain 1 R95L,0.0463
4,chain 1 K92L,0.107
5,chain 1 T41A,-0.0364
6,chain 1 F35A,-0.185
7,chain 1 F35E,-0.17
8,chain 1 L178A,-0.664
9,chain 1 G153K,-0.674
10,chain 1 G153A,-0.209
11,chain 1 P103K,-1.36
12,chain 1 F348E,0.112
13,chain 1 N180L,0.0119
14,chain 1 G59L,-0.00134
15,chain 1 E125L,-0.268
16,chain 1 L102K,-1.19
17,chain 1 A104E,-1.07
18,chain 1 H109E,-0.442
19,chain 1 E314A,-0.247
20,chain 1 Q396A,0.313
21,chain 1 G189E,-1
22,chain 1 A453E,0.218
23,chain 1 K275A,-0.55
24,chain 1 P156K,-0.552
25,chain 1 S87E,-0.527
26,chain 1 S87A,0.0206

# Same assay, conditions: with perilipin-1, mouse (mPlin1), transient co-transfection, IgG-coated LUMITRAC plates, 2 h at 4 °C, three PBS washes, Bright-Glo luciferase reagent, triplicates per assay, two …, parent: -0.37, not graded, scale: log2 fold change of co-immunoprecipitated luminescence relative to wild-type ATGL within each experiment
row,Variant,screen value
1,chain 1 L62K,0.284
2,chain 1 L62A,-0.248
3,chain 1 G16K,0.718
4,chain 1 Q140A,-0.191
5,chain 1 Q140K,0.00731
6,chain 1 E368A,-0.602
7,chain 1 I70K,-0.759
8,chain 1 I70A,-0.781
9,chain 1 R351L,-0.298
10,chain 1 A434L,0.452
11,chain 1 R329E,-0.537
12,chain 1 R163K,-0.582
13,chain 1 G66L,-0.433
14,chain 1 G66A,0.198
15,chain 1 R113K,0.272
16,chain 1 R113L,0.163
17,chain 1 S106K,-0.667
18,chain 1 L261E,-1.14
19,chain 1 N39E,-0.558
20,chain 1 S158E,-0.376
21,chain 1 S158A,0.188
22,chain 1 P86K,-0.498
23,chain 1 L159A,0.395
24,chain 1 V328A,-0.0406
25,chain 1 Y415A,-0.00379
26,chain 1 P258L,-1.35

row,Variant,screen value
1,chain 1 V127L,-0.288
2,chain 1 R95K,-0.635
3,chain 1 R95L,0.332
4,chain 1 K92L,0.166
5,chain 1 T41A,-0.45
6,chain 1 F35A,-0.158
7,chain 1 F35E,-0.197
8,chain 1 G153K,-0.772
9,chain 1 G153A,-0.215
10,chain 1 P103K,-0.898
11,chain 1 F348E,-0.626
12,chain 1 N180L,-0.626
13,chain 1 G59L,-0.613
14,chain 1 E125L,-0.225
15,chain 1 L102K,-0.807
16,chain 1 A104E,-0.823
17,chain 1 H109E,-0.386
18,chain 1 E314A,0.211
19,chain 1 Q396A,-0.0639
20,chain 1 G189E,-1.43
21,chain 1 A453E,0.0778
22,chain 1 K275A,-0.709
23,chain 1 P156K,-0.726
24,chain 1 S87E,-0.625
25,chain 1 S87A,-0.536

# Same assay, conditions: with perilipin-1, mouse (mPlin1), transient co-transfection, IgG-coated LUMITRAC plates, 2 h at 4 °C, three PBS washes, Bright-Glo luciferase reagent, triplicates per assay, two …, parent: -0.37, not graded, value at the no-binding floor (a bound), scale: log2 fold change of co-immunoprecipitated luminescence relative to wild-type ATGL within each experiment
row,Variant,screen value
1,chain 1 L178A,-1.6
